Reference: the supplement of paper PMC9170038

system: K4 kissing-loop RNA reporter; assay: apparent KD of K4 kissing-loop reporter; higher = weaker reporter binding; conditions: Eterna round: R107; input ligand: FMN 200 uM
Procedure: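 RNA-MaP round R107: designed RNA switches with theophylline, tryptophan, arginine or FMN aptamers are transcribed on-chip within common flanks. They are titrated with a labelled K4 kissing-loop RNA reporter in RNA-MaP buffer (100 mM Tris pH 7.5, 80 mM KCl, 4 mM MgCl2), without ligand or with the indicated ligand. Median apparent KD per design.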
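Further: bound reporter read as fluorescence of individual clusters on recovered sequencing chips by microscopy, with normalized cluster intensities fitted with a binding model.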

Sequence | apparent KD of K4 kissing-loop reporter [nM]
AGACUACCACACUGUCAAUAGACAGUGGACUAGGAUAUGCUGAUAAGCAGAAGGAGUGAUGUUCCGAGGUAGUCAAUAAAAUAAU [FmnAX 13 G28+G66] | 304
CCCUCACGAGUGAUGUUCGUAGGGUACAGUCAGGAUAUCAUGCGGUUGAGAAGGGACAGAGAGGGCGGCGGCGGGUUGCUCUUCG [Xeaan] | 155
ACACGGGUCUCGGCCGCCACUCUGCCUACCACCAUUAGUGCCAGUGAUGUUGGCAGGUGAGGGCUGAGGACCGGGAGAUCCAUAC [Zaremais] | 140
UAGCGUAUUGAAGGAUAUUGCCUAGGAGUGAUGUUUGUAGAAAAUUUCCAACGGAACGAAUGUUAGCAAGAAGGUCAAUGGCCUU [theeternabot_exclusion_KL_FMN_B_40] | 230
AGCUCAGAGUGACUUGAUAAGAGUCACAAACGAGGACCGGUACGGCCGCCACUCGAAAUAACGAGAGUGAUGUUCUCGCUGAGCA [FiskerMod 5 - Jieux - Same State Tryptophan A] | 696
GAGGUUUACGUAGGAUAUCGAUAAUGAGUAAAUGGAGUGAUGUUCCGAAAUUGAAUAAGAGAUGAGCGAGAAGGGCGGAUUAAGC [FMN B Same State; Euporia Solution] | 39.1
GUGUCCUAGUCGGCCGCCACUGGUACGAAAAUAGAAGGACGUGUGCACAUGAGUGAUGUUCAUGUCAGGACCGGGACUAGGGUGU [KL-SSTryp-B6 Brourdwalk2] | 281
UGUCAUUGGUCUGAUACCAGCUUGAUCGGUAAACGAUCUACUGGAGUGAUGUUCCUAAAUAGCCCUUGGCAGCAGACCGAUGACU [TheoBS 4 #SwitchBubble #StaticStem] | 197
GGGAGUAGUGCGGCCGCCACUGAGAAAGAAGAAGAAUAUAGUGAUGUUAUAUAGGAAAUAAAGAACAGGACCGGGCAUUAGAUUU [SSTRyptB.N] | 269
ACCGGACAAGAGGUGUCAGUGAUGUUGGCGCGAGGACCGGUACGGCCGCCACUCGAGGAAAGCGGUCACGCCCUGGUAGGACUGG [theeternabot_exclusion_KL_Trp_A_22] | 169
AAGUGCCUCAAGAGGCAGUAUCUGCCUCAACGAGGACCGGUACGGCCGCCACUCGAAUAAUAGAGUGAUGUUCUAAGAGGCACAA [AK1.5 SS Tryptophan A] | 461
AGAACUGUCUGAGAUACCAGCCAAGGAGUGAUGUUCCGGCUCGACGAAACGUCGAGCAAUGGCCCUUGGCAGCUCAGACAGUUCA [Omei KL Theo B SS A v3] | 387
GCGGCCCAGACGGAUACCAGUGACCCGCUGGGAACCGCGGGCCCAGAGUGAUGUUCGGGACACCCUUGGCAGCCGCCUGGGUCGC [#2 Same State - Theophylline B Attempt #19 (HarryS)] | 732
AAGCAUUCUUCGGAUUGCAGACCCGCUGAGGAGGAUAUGACGAAAGUCAGAAGGUUUCAGUGAUGUUGAGGCCUCCUCAAUGGUC [whbob_Ex_FMNA__2th183] | 280
GCAGUGAUGUUGCUCGUUUCAUCGCGAGAUACCAGACCAUAUGAGGUCCCUUGGCAGCUCUAGUCAUCUGGUCCUUUUGCGUACU [theeternabot_exclusion_KL_Theo_A_2] | 906
GUUAUCACGCGAAGGAGCGCGGAGCGAUAACGCAGUGAUGUUGCGUUAAACGUAAUAUAAUCGCAGGUAGGUCGCGCGUGAUACC [Arg B Ex t6] | 104

Sequence | apparent KD of K4 kissing-loop reporter [nM]
ACAUUUUCAAGUGAUACCAGACAUUUUUUUUUCUUUAUUUAUGCUAAGUGAUGUUUAGCAGUCCCUUGGCAGCACUAUUUAACUA [JR_Nu_SSTheophyB_Sub031] | 121
CGCUGGGCGAGUGAUGUUCGCUCACGUGAUACCAGUGCCAUCCAACACCCUUGGCAGCACGCGGGCAGUGAUGUUGUCCUUGUAU [Exclusion Theophylline A GF6] | 130
AAUUGGCAGUGAUGUUGUCAAGGACAUACGAAGGAUAUAAGUGAAGUUAGAAGGUCGACCAUCACUUCUUUGCCAUUUGCAUGAC [theeternabot_exclusion_KL_FMN_A_20] | 238
CAUCCUACACCUCAAGCAGUGAUGUUGCUACGAGGACCGGUACGGCCGCCACUCGUUUAAGCAUGGAUAUUAGCUGUGCUGACUA [theeternabot_exclusion_KL_Trp_A_16] | 468
UGACUGGACUGAAGGAGCGCUGAACUCCUAGUGAUGUUAGGAUAACGAGACAAAGUCUCGCGGCAGGUAGGUCGCAGUCUAGUCU | 122
CGCGGCCGGCCGGAUACCAGUGACCCGCUGGCAACCGCGGGCCCAGAGUGAUGUUCGGGACACCCUUGGCAGCCGCCUGGGCGUG [#2 Same State - Theophylline B Attempt #4 (HarryS)] | 521
ACGUAGUUCUAGGAUACCAGCCAAGGAGCCCAGGACAAAAGUCCUGGCGCCAGUGAUGUUGGCCCUUGGCAGCCUAGAACUACGA [Omei KL Theo B Exc B v4] | 181
GCUACUGCUGAAGGAUAUAUCAAUAGAGUGAUGUUCUAUGUCGGUAGCCCGAAAGGGCUACCGACGGUAGAAGGUCAGCAGUAGC | 182
AACUGGGUUCGUGAUACCAGCUCACACAUGAGUGAUGUUCAUGUAGUGGGUAAAAUGUGGAGCCCUUGGCAGCACUGUGACCACG [XTheo-B1] | 91.5
UACUAUAGUGAUGUUAUAGAUAAACCAGAUACCAGUGUAACAUAACACCCUUGGCAGCUGAUGAGGGAAAAUAUAAAUGUGUAUU [AstrosSSTHe-A#4newdesignED10.09] | 196
GUUGACUACCAGAGGUGAUGUAUAGUAUCGCGAGGACCGGUACGGCCGCCACUCGUGAAGAGAAAGGAGUGAUGUUCCGUAAUGG [C9] | 222
UAAUAGUAGACCAGGUCUACUAUUAGGGAUACCAGCCUCGGUCGAGGCCCUUGGCAGCCCAGCGGGUCCAGUGAUGUUGGAUGUC [Beoratri] | 400
UUGACCUACUCAGGAUAUCCGCAGUGAUGUUGCGGUUGGCCUGAGCGACAUGAAAAUCUUACUACAGGAGAAGGGAGAGGGUUAC [Anraerce] | 106
UUAGGAGUGGAAGGAUAUCCUGGUGUGGGUGAUGUUAGUGAUGUUGAAGGUGCAGUGAUGUUGCGCGGAGAAGGUCCGGUGUUGA [BDazzled - #6 - Exc. FMN B] | 344
UGACUGGACUGAAGGAGCGUUGAAGGAGCGUAAGCAGUGAUGUUGCUUACAGGUAGGUCGCAGCAGGUAGGUCGCAGUCUAGUCU [ArgBS 28 #DoubleAptamer #SwitchBubble] | 134

same assay, conditions: Eterna round: R107; input ligand: arginine 13.2 mM

Sequence | apparent KD of K4 kissing-loop reporter [nM]
AGACUACCACACUGUCAAUAGACAGUGGACUAGGAUAUGCUGAUAAGCAGAAGGAGUGAUGUUCCGAGGUAGUCAAUAAAAUAAU [FmnAX 13 G28+G66] | 309
CCCUCACGAGUGAUGUUCGUAGGGUACAGUCAGGAUAUCAUGCGGUUGAGAAGGGACAGAGAGGGCGGCGGCGGGUUGCUCUUCG [Xeaan] | 190
ACACGGGUCUCGGCCGCCACUCUGCCUACCACCAUUAGUGCCAGUGAUGUUGGCAGGUGAGGGCUGAGGACCGGGAGAUCCAUAC [Zaremais] | 124
UAGCGUAUUGAAGGAUAUUGCCUAGGAGUGAUGUUUGUAGAAAAUUUCCAACGGAACGAAUGUUAGCAAGAAGGUCAAUGGCCUU [theeternabot_exclusion_KL_FMN_B_40] | 239
AGCUCAGAGUGACUUGAUAAGAGUCACAAACGAGGACCGGUACGGCCGCCACUCGAAAUAACGAGAGUGAUGUUCUCGCUGAGCA [FiskerMod 5 - Jieux - Same State Tryptophan A] | 564
GAGGUUUACGUAGGAUAUCGAUAAUGAGUAAAUGGAGUGAUGUUCCGAAAUUGAAUAAGAGAUGAGCGAGAAGGGCGGAUUAAGC [FMN B Same State; Euporia Solution] | 41.4
GUGUCCUAGUCGGCCGCCACUGGUACGAAAAUAGAAGGACGUGUGCACAUGAGUGAUGUUCAUGUCAGGACCGGGACUAGGGUGU [KL-SSTryp-B6 Brourdwalk2] | 304
